The nanobody polyreactivity screen of Harvey et al. (2022)

assay: yeast display, Sf9 membrane polyspecificity reagent, FACS + sequencing; frameworks hold sequencing errors
How it was run: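 Using colony PCR, genes from sorted yeast display clones were amplified, then sequenced on MiSeq at 2 × 250 and filtered by CDR length. The clones had been stained with 10% biotinylated, detergent-solubilized Sf9 membrane reagent for 1 hour at 4 °C and sorted by FACS into low and high (top ~1%) gates on anti-HA and streptavidin fluorescence. Polyreactivity labels come from the gate of origin.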

Sequence | polyreactivity (PSR sort gate)
QVQLVESGGGLVQAGGSLRLSCAASGFTFVYYVMGWYRQAPGKERELVAAINAGGGSTYYADSVKGRFTISRDNAKNTVYLQMNSLKPEDTAVYYCNARVRVRLGRNWSSYDYWGQGSQVTVSS | high polyreactivity
QVQLVESGGGLVQPGGSLRLSCAASGSTFEYNAMGWYRQAPGKERELVASSTNYADSVKGRFTISRDNAKNTVYLQMNSLKPEDTAVYYCAREQGVNRNHDYWGQGTQVTVSS | low polyreactivity
QVQLVESGGGLVQAGGSLRLSCAASGSTFWPYAMGWYRQAPGKEREMVAAITWRGGRTYYADTVKGRFTISRDNAQNTVYLQMNSLKPEDTAVSYCNTGPWSRSWSQKYEYWGQGTQVTVSS | high polyreactivity
QVQLVESGGGLDQAGGSLRLSCAASGSIFRRYTMGWYRQAPGKERELVAAISRVGNTNYADSVKGRITISRDNAKNTVYFQMNSLKPEDTEVYYCAARAIGYRYTPGLNYWGQGTQVTVSS | high polyreactivity
QVQLVESGGGLVQAGGSLRLSCAASGFIFGGNAMGWYRQAPGNERELVARISSGGITSYADSVKGRFTISRDNAKNSVYLQMYSLKPEDTAVYYCAADDYVSTQDDSYYEYDYWGQGTQVTVSS | low polyreactivity
QVQLVESGGGLVQAGGSLRLSCAASGFTFSLYAMGWYRQAPGKERELVASIDSDGVSTYYADSVKGRFTISRDNAKNTVYLQMNSLKPEDTAVYYCAADLWWGYISGPVRGRGYYWGQGTQVTVSS | low polyreactivity
QVQLVESGGGLVQAGGSLRLSCAASGRTFKGNAMGWYRQAPGKEIELVAAISKSGGRTYYADSVKGRFTISRDNAKNTVYLQMNSLKPEDTAVYYCAVDVGPTKVRFGYLGQGTQVTVSS | high polyreactivity
QVQLQESGGGLVQAGGSLRLTCAASGTITVLYKRGWFRQAPGKEREFVASINYGTSTYYADSVKGRFTVSRDSAINTVYLQMTSLKPEDTAVDYCAAAYRWQDVYRYWGQGTQVTVSS | low polyreactivity
QVQLVESGGGLVQAGGSLRLSCAASGRIFAYYAKGWYRQAPRKQRELVAAISSGGNTNYADSVKGRFTISRDNAKKTVYLQMNSLKPEDSAVYYCSAYHFSFGWIRVDDWGQGTQVTVSS | high polyreactivity
QVQLVESWGGLVQAGGSLRLSCAASGSTFGKYFMGWYRQAHGKERELVAAISLSGGSTYYADSVKGRFTISRDKAKNTVYLQMNSLKPEDTAVYYCATVGYGYDYWGQGNQVTVSS | high polyreactivity
QVQLVESGGGLVQAGGSLRLSCAASGRTFSYNTMGWYRQAPGKERELVASISGSGGRTYYADSVKGRFTISRDNAKNTVYLQMNSLKPEDTAVYYCAARRYSRDYDYWGQGTQVTVSS | high polyreactivity
QVQLVESGGGLVQAGGSLRLSCAASGFTFDYYAMGWYRQAPGKERELVAAINYSGGSTYYADSVKGRFTISRDNAKNTVYLQMNSLKPEDTAVYYCNAVGYSVFRRYNYWGQGTQVTVSS | high polyreactivity
QVQLVESGGGLVQAGGSLRLSCAASGSIFRGYAMGWYRPAPGKERELVAAISWSAGSTYYADSVKGRFTISRDNAKNTVYLQMNSLKPEDTAVYYCAARSPRRKGMDYWGQGTQVTVSS | high polyreactivity
QVQLVESGGGLVQAGGSLRLSCAASGFTFWDYAMGWYRQAPGKERELVAAISWSGGSTYYADSVKGRFTISRDNAKNTVYLQMNSLKPEDTAVYYCNAVHYSHHGYDYWGQGTQVTVSS | low polyreactivity
QVQLVESGGGLVQAGGSLRLSCASSGRIFGGYAMGWYRQAPGTELELVAAISSGGSTYYADSVKGRFTISRDNAKNTVYLQMNSLKPEDTAVYYCYAYYPWRWGSYPFDYWGQGTQVTVSS | high polyreactivity
QVQLVESGGGLVQAGGSLRLSCAASGSTFSYNAMGWYRQAPWKERELVAAISWNGDSTYADSVKGRFTISRDNAKNTVYLQMNSLKPEDTAVYYCAKDTIITPGRRKSPRYRHGYWGQGTQVTVSS | low polyreactivity

Sequence | polyreactivity (PSR sort gate)
QVQLVESGGGLVQAGGSLRLSCAASGSTFATYAMGWYRPAPGKERELVAAITRGGRTNYADSVKGRFTISRDNAKNTVYLQMNSLKPEDTSVYYCAADYIYGYFWRFGYWGQGTQVTVSS | low polyreactivity
QVQLVESGGGLVQAGGSLRLSCAASGRTFVHYTMGWYRQAPGKERELVATISTSGGSTSYADSVKGRFTISRDNAKNTVYLQMNSLIPEDTAVYYCAARWYFPDRVKYDYWGQGTQVTVSS | low polyreactivity
QVQLVESGGGLVQAGGSLRLSCAASGRIFSVYDMGWYRQAPGKERELVAAIDTSDGSTNYADSVKGRFTISRDNAKNTVYLQMNSLKPEDTAVYYCNATDSYVPFDYWGQGTQVTVSS | low polyreactivity
QVQQVESGGGLVQAGGSLRLSSAASGITFRYYAMGWYRQAPGKERELVAAISSTGGSSYYADSVKGRFTISRDNAKNTVYLQMNSLKPEDTAVYYCNTQYNSQYDYWGQGTQVTVSS | high polyreactivity
QVQLVESGGGLVQAGGSLRLSCAASGRIFWDNAMGWYRQAPGKERELVAAITFSGGSTYYADSVKGRFTISRDNAKNTVYLQMNSLKPEDTAVYYCAKGEWVYWRPWYEYWGQGTQVTVSS | low polyreactivity
QVQLVESGGGLVQAGGSLRLSCAASGRIFPFNAMGWYRQAPGKEREFVAAIRLSGTRTYYADSVKGRFTISRDNAKNTVYLQMNSLKPEDTAVYYCAAKYSGHYYNYDYWGQGTQVSVSS | high polyreactivity
QVQLVESGGGLVQAGGSLRLSFAASGSTFGLNAMGWYRQAPGKERELVAAITRSDITNYADSVKGRFTISRDNAKNTVYLQMNSLKPEDTAVYYCNKTPDRHRRYFGYGYWGQGTQVTVSS | low polyreactivity
QDQLVESGGGLVQAGGSLRLSCAASGSTIYAYAMGWYRQAPGKERELVARIRWRGGRTYYADSVKGRFTISRDNAKNTVYLRMNSLKPEDTAVYYCAAYKRRSNGRYWTYDYWGQGTQVTVSS | high polyreactivity
QVQLVESGGGLVQAGGSLRLSCAASGSTYYNAMGWSRQAPGNERELVAAIRFRSGSTYYADSVKGRFTISRDNAKNTVYLQMNSLTPEDTAVYYCAADNKRSWRYAYNYWGQGTQVTVSS | high polyreactivity
QVQLVESGGGLVQAGGSLRLSSADSGFIFSYYAMGWYRQAPGKERELVAAISSVGSTNYADSVKGRFTISRDNAKNTVYLQMNSLKPEDTAVYYCAARYLWYKYYYWGQGTQVTVSS | high polyreactivity
QVQLVESGGGLVQAGGSLRLSCAASGIIFRRYAMGWYRQAPGKEREFVAAIRYTGGGTYYADSVKGRFTISRDNAKNTVYLQMNSLKPEDTAVYYCAARDRDTRNYYWGQGTQVTVSS | high polyreactivity
QVQLVESGGGLVQAGGSLRLSCAASGRIFYTNAMGWYRQAPGKERELVATISLRGGSTYYADSVKGRFTISRDNAKNTVYLQLNSLKPEDTAVYDCAARFWSVYSGNPTYPKYYWGQGTQVTVSS | high polyreactivity
QVQLVESGGGLVQAGGSLRLSCAASGSIFYGYAMGWYRQAPGKERELVARITGSGGDTSYADSVKGRFTISRDNAKNTVYLQMNSLKPEDTAVYYCAKRGYHFLTKYDYWGQGTQVTVSS | low polyreactivity
QVQLVESGGGLVQAGGSLRLSCAASGSIFQYNAMGWYRQAPGKERELVAAINGGGSTYYADSVKGRFTISRDNAKNTVYLQMNSLKPEDTAVYYCAADGGAYSYRGPGKFGIEDSWGQGTQVTVSS | low polyreactivity
QVQLVESGGGLVQAGGSLRLSCAASGFTFDIYGMGWYRQAPGKERELVASITSRSARTNYADSVKGRFRISRDNAMNTVYLQMNSLKPEDSAVYYCAADPYTGYTYYWGQVTQVTVSS | high polyreactivity
QVQLVESGGGLVQAGGILSLSCAASGLIFRKNAKGWYRQAPGKEMELVAAISGRGGITYYADSVKGRFTISRDNAKNTVYLQMNSLKPEDTAVYYCATRFYRPRDGLYDYWGHGTQVTVSS | high polyreactivity
